# Measured values reported in patent publication WO2022025129A1 (dated 2022).
# B1: 3B6 antibody (recombinant human anti-HBs monoclonal antibody) (antibody, V domains shown)
# VH: EVQLVESGGGVVQPGKSLRVSCAASGFSFSNYGMHWVRQAPGKGLEWVSVIWRDGSHQYYADSVKGRFTVSRDNARDTLFLQMDGLRAEDTAVYYCAREDPAIVLPVLDHWGRGTLVTVSS
# VL: AAAMTQSPVSLSASVGDRVTITCRASQRINSYLNWYQQKPGKAPKLLIYGASNLPSGVPSRFSGSGSGTYFTLTISSLQPEDLATYYCQQGYSTPLLSFGPGTKVEIKR
# notes: also called 3B6 clone
# B2: M2-11 antibody (recombinant human anti-HBs monoclonal antibody) (antibody, V domains shown)
# VH: QVQLVESGGGLVKPGESLRLSCAASGFMFSGHSMVWVRQAPGKGLEWVSFIGSTGEFISYADSVRGRFTISRDNAKNSLYLQMNSLRADDTAVYYCAREQGTRGRYYYYGLDVWGQGTTVTVSS
# VL: AAAMTQTPPSLSLSPGESATLSCRASQSVSTYLAWYQQKPGQAPRLLIYDAFNRATGIPARFSGSGSGTDFTLTISGLEPEDFAVYYCQQRGHWPLTFGGGTKVEIKR
# notes: also called M2-11 clone
# B3: 5A4 antibody (recombinant human anti-HBs monoclonal antibody) (antibody, V domains shown)
# VH: QVQLQESGPGLVKPSDTLSLTCTVSGGSISGHYWSWIRRLPGGGLEWIGYIHYSGITNYNPSLKSRVTMSVDMSKNQFSLRLRSVTATDTAVYYCARGDATYGYWGQGAPVTVSS
# VL: AAAMTQSPFTLPVTPGEPASISCRSSQSLLHRNGYNYVNWYLRKPGQSPQLLISLGSDRASGVPDRFRGSGAGTDFTLKISRVEAEDVGVYYCMQALRTPWTFGQGTKVEIKR
# notes: also called 5A4 clone
# Target: HBs antigen of genotype C HBV (infectious virus) (Hepatitis B virus (HBV) genotype C)
# Test: cell-based or functional assay
row,Binder,"neutralization activity against commercially available HBIG (reduction of HBe antigen, PXB cells)"
1,B1,≥ 10 fold against commercially available HBIG
2,B2,≥ 10 fold against commercially available HBIG
3,B3,≥ 10 fold against commercially available HBIG

# Target: T1, human insulin (Fujifilm Wako Pure Chemical) (human, UniProt P01308 25-54; P01308 90-110)
# T1 construct: also called human-derived component
# T1 sequence (P01308 25-54 limits assumed, chain 1 of 2): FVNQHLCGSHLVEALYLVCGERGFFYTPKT
# T1 sequence (P01308 90-110 limits assumed, chain 2 of 2): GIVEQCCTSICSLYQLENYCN
# Test: ELISA, human insulin coated on the plate, anti-human IgG-HRP
row,Binder,binding result
1,B1,no binding (tested: 特異抗原であるHBsへの結合が飽和する濃度の10倍以上の抗体濃度)
2,B2,no binding (tested: 特異抗原であるHBsへの結合が飽和する濃度の10倍以上の抗体濃度)
3,B3,no binding (tested: 特異抗原であるHBsへの結合が飽和する濃度の10倍以上の抗体濃度)
